According to patent US20240132548A1 (Janssen / Centocor, published 2024):

Legend:
Assay in all cases: BLI (Octet), biotinylated mAb on streptavidin sensors, culture supernatant
[1] = biological target: T1, RSV181178 (I152M + K226M) (respiratory syncytial virus, subgroup B …, UniProt O36634 26-109; P13843 137-540)
T1 construct: Measured in crude culture supernatant, no furin co-transfection
T1 chain 1: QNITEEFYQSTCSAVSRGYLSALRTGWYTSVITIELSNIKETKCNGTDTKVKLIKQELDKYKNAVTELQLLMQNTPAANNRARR
T1 chain 2: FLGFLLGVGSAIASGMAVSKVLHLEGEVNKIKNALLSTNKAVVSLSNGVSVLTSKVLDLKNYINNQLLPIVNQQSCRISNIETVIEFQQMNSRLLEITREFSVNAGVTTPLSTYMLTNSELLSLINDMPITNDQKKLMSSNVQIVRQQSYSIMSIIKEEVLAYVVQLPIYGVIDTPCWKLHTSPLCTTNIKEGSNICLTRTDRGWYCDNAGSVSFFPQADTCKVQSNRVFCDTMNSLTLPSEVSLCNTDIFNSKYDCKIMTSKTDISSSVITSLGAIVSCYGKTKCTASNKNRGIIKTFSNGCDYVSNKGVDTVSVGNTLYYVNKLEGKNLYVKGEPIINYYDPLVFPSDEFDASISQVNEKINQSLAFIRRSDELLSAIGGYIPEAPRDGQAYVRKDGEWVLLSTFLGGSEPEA
Procedure: (§1) Quantitative Octet (BioLayer Interferometry) was used for measuring protein concentration in the supernatants at day of harvest and after 7 or 30 days storage at 4° C. CR9501 (an antibody specifically recognizing pre-fusion RSV F protein, which comprises the variable regions of the antibodies 58C5 as described in WO2012/006596) and CR9506 (recognizing pre-fusion and post-fusion RSV F protein and comprising a heavy chain variable region comprising SEQ ID NO: 21, and a light chain variable region comprising SEQ ID NO: 22) were biotinylated by standard protocols and immobilized on Streptavidin biosensors (ForteBio, Portsmouth, UK).
(§2) Afterwards, the coated biosensors were blocked in mock cell culture supernatant. A quantitative experiment was performed as follows: temperature 30° C., shaking speed 1000 rpm, time of the assay 300 sec. The concentration of the protein was calculated using a standard curve. The standard curve was prepared for each coated antibody CR9501 and CR9506 using the pre-fusion RSV FA protein (SEQ ID NO: 19; described previously in WO17174568) diluted in mock medium. […] The data analysis was done using the ForteBio Data Analysis 10.0.1.6 software (ForteBio).

[2] = biological target: T2, RSV190417 (tag-free; I152M + K226M + D486N + S215P + L203I + P101Q + D489Y) (respiratory syncytial virus, subgroup B …, UniProt O36634 26-109; P13843 137-540)
T2 construct: Measured in culture supernatant, furin co-transfected
T2 chain 1: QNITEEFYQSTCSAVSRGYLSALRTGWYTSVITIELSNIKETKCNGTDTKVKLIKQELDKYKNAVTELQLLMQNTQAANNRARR
T2 chain 2: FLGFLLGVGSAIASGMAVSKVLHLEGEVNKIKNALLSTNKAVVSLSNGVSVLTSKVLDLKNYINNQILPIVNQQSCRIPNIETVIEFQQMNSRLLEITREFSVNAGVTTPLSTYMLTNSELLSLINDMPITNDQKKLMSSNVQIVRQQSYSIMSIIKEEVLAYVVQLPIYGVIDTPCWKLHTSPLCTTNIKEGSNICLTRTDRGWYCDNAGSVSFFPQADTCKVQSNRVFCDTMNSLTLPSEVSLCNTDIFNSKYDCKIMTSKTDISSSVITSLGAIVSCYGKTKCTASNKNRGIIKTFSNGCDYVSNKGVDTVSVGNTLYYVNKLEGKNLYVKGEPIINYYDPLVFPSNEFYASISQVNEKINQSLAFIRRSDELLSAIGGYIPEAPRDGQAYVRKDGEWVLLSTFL
Procedure: as §1, §2

[3] = biological target: T3, RSV181177, non-stabilized RSV F B consensus soluble polypeptide with foldon and C-tag (respiratory syncytial virus, subgroup B …, UniProt O36634 26-109; O36634 137-540)
T3 construct: Measured in crude culture supernatant, no furin co-transfection; processing may be incomplete; End 551 is the end of the entry as counted; also called non-stabilized RSV F type B; non-stabilized F
T3 chain 1: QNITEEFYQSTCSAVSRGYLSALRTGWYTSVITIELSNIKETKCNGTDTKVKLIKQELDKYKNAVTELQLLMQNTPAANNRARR
T3 chain 2: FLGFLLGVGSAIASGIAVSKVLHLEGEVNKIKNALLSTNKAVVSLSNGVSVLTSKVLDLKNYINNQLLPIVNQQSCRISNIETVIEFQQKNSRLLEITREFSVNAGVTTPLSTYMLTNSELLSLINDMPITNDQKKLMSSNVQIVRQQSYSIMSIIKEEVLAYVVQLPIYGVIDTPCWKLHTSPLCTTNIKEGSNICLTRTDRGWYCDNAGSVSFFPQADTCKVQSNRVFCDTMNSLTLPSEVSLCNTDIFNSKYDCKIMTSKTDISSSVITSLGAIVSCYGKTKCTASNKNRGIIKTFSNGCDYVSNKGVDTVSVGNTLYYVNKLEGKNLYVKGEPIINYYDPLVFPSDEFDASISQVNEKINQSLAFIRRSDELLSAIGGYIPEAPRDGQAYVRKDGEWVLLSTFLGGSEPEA
Procedure: as §1, §2

[4] = biological target: T4, RSV181181 (I152M + K226M + D486N + S215P + P101Q + D489Y) (respiratory syncytial virus, subgroup B …, UniProt O36634 26-109; P13843 137-540)
T4 chain 1: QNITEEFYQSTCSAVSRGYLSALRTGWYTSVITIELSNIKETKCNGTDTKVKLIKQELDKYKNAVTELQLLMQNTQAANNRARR
T4 chain 2: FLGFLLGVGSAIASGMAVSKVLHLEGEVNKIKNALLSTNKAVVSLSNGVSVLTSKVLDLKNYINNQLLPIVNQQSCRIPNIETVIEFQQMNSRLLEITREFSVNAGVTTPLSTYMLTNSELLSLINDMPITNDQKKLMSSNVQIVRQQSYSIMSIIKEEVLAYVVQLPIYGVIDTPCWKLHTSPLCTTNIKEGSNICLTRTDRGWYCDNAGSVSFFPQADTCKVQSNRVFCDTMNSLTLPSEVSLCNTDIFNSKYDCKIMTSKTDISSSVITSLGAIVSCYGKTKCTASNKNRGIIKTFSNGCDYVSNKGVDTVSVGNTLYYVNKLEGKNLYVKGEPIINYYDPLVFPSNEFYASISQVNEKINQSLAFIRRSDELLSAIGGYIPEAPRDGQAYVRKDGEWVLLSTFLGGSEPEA
Procedure: as §1, §2

Measured: binding result

B1: CR9506 (antibody, human IgG1, kappa, V domains shown)
VH: EVQLVQSGAEVKKPGSSVKVSCKASGGTFSRSLITWVRQAPGQGLEWMGEISLVFGSAKNAQKFQGRVTITADESTSTAHMEMISLKHEDTAVYYCAAHQYGSGTHNNFWDESELRFDLWGQGTLVTVSS
VL: DIVMTQSPSSLSASVGDRVTIACRASQSIGTYLNWYQQKPGKAPKLLIYAASSLQSGVPSRFSGSGSGTHFTLAISSLQAEDFATYSCQQSYTIPYTFGQGTKLEIKR
notes: Biotinylated for Octet; coated and also used HRP-labelled as detection antibody in the ELISA
binds: all assays above
